Measurements published in publication PMC9179584 (2022).

B1: SMAD2 wild type, overexpressed from pCMV5b-SMAD2 [not stated] / SMAD Anchor for Receptor Activation (SARA) [human (endogenous in HT-1080)] (parent complex)
chain 1: MSSILPFTPPVVKRLLGWKKSAGGSGGAGGGEQNGQEEKWCEKAVKSLVKKLKKTGRLDELEKAITTQNCNTKCVTIPSTCSEIWGLSTPNTIDQWDTTGLYSFSEQTRSLDGRLQVSHRKGLPHVIYCRLWRWPDLHSHHELKAIENCEYAFNLKKDEVCVNPYHYQRVETPVLPPVLVPRHTEILTELPPLDDYTHSIPENTNFPAGIEPQSNYIPETPPPGYISEDGETSDQQLNQSMDTGSPAELSPTTLSPVNHSLDLQPVTYSEPAFWCSIAYYELNQRVGETFHASQPSLTVDGFTDPSNSERFCLGLLSNVNRNATVEMTRRHIGRGVRLYYIGGEVFAECLSDSAIFVQSPNCNQRYGWHPATVCKIPPGCNLKIFNNQEFAALLAQSVNQGFEAVYQLTRMCTIRMSFVKGWGAEYRRQTVTSTPCWIELHLNGPLQWLDKVLTQMGSPSVRCSSMS
chain 2: MENYFQAEAYNLDKVLDEFEQNEDETVSSTLLDTKWNKILDPPSHRLSFNPTLASVNESAVSNESQPQLKVFSLAHSAPLTTEEEDHCANGQDCNLNPEIATMWIDENAVAEDQLIKRNYSWDDQCSAVEVGEKKCGNLACLPDEKNVLVVAVMHNCDKRTLQNDLQDCNNYNSQSLMDAFSCSLDNENRQTDQFSFSINESTEKDMNSEKQMDPLNRPKTEGRSVNHLCPTSSDSLASVCSPSQLKDDGSIGRDPSMSAITSLTVDSVISSQGTDGCPAVKKQENYIPDEDLTGKISSPRTDLGSPNSFSHMSEGILMKKEPAEESTTEESLRSGLPLLLKPDMPNGSGRNNDCERCSDCLVPNEVRADENEGYEHEETLGTTEFLNMTEHFSESQDMTNWKLTKLNEMNDSQVNEEKEKFLQISQPEDTNGDSGGQCVGLADAGLDLKGTCISESEECDFSTVIDTPAANYLSNGCDSYGMQDPGVSFVPKTLPSKEDSVTEEKEIEESKSECYSNIYEQRGNEATEGSGLLLNSTGDLMKKNYLHNFCSQVPSVLGQSSPKVVASLPSISVPFGGARPKQPSNLKLQIPKPLSDHLQNDFPANSGNNTKNKNDILGKAKLGENSATNVCSPSLGNISNVDTNGEHLESYEAEISTRPCLALAPDSPDNDLRAGQFGISARKPFTTLGEVAPVWVPDSQAPNCMKCEARFTFTKRRHHCRACGKVFCASCCSLKCKLLYMDRKEARVCVICHSVLMNAQAWENMMSASSQSPNPNNPAEYCSTIPPLQQAQASGALSSPPPTVMVPVGVLKHPGAEVAQPREQRRVWFADGILPNGEVADAAKLTMNGTSSAGTLAVSHDPVKPVTTSPLPAETDICLFSGSITQVGSPVGSAMNLIPEDGLPPILISTGVKGDYAVEEKPSQISVMQQLEDGGPDPLVFVLNANLLSMVKIVNYVNRKCWCFTTKGMHAVGQSEIVILLQCLPDEKCLPKDIFNHFVQLYRDALAGNVVSNLGHSFFSQSFLGSKEHGGFLYVTSTYQSLQDLVLPTPPYLFGILIQKWETPWAKVFPIRLMLRLGAEYRLYPCPLFSVRFRKPLFGETGHTIMNLLADFRNYQYTLPVVQGLVVDMEVRKTSIKIPSNRYNEMMKAMNKSNEHVLAGGACFNEKADSHLVCVQNDDGNYQTQAISIHNQPRKVTGASFFVFSGALKSSSGYLAKSSIVEDGVMVQITAENMDSLRQALREMKDFTITCGKADAEEPQEHIHIQWVDDDKNVSKGVVSPIDGKSMETITNVKIFHGSEYKANGKVIRWTEVFFLENDDQHNCLSDPADHSRLTEHVAKAFCLALCPHLKLLKEDGMTKLGLRVTLDSDQVGYQAGSNGQPLPSQYMNDLDSALVPVIHGGACQLSEGPVVMELIFYILENIV
B2: SMAD3 wild type, overexpressed from pCMV5b-SMAD3 [not stated] / SMAD Anchor for Receptor Activation (SARA) [human (endogenous in HT-1080)] (parent complex)
chain 1: MSSILPFTPPIVKRLLGWKKGEQNGQEEKWCEKAVKSLVKKLKKTGQLDELEKAITTQNVNTKCITIPRSLDGRLQVSHRKGLPHVIYCRLWRWPDLHSHHELRAMELCEFAFNMKKDEVCVNPYHYQRVETPVLPPVLVPRHTEIPAEFPPLDDYSHSIPENTNFPAGIEPQSNIPETPPPGYLSEDGETSDHQMNHSMDAGSPNLSPNPMSPAHNNLDLQPVTYCEPAFWCSISYYELNQRVGETFHASQPSMTVDGFTDPSNSERFCLGLLSNVNRNAAVELTRRHIGRGVRLYYIGGEVFAECLSDSAIFVQSPNCNQRYGWHPATVCKIPPGCNLKIFNNQEFAALLAQSVNQGFEAVYQLTRMCTIRMSFVKGWGAEYRRQTVTSTPCWIELHLNGPLQWLDKVLTQMGSPSIRCSSVS
chain 2: B1 chain 2

Variants of: B1
Experiment: co-immunoprecipitation (IP: SMAD2, blot SARA) with densitometry; HT-1080 cells transiently transfected; ratio printed relative to the pCMV5b empty-vector lane = 1; parent: 1.2

Variant	screen value
chain 1 N381S	0.5

Variants of: B2
Experiment: co-immunoprecipitation (IP: SMAD3, blot SARA) with densitometry; HT-1080 cells transiently transfected; ratio printed relative to the pCMV5b empty-vector lane = 1; parent: 0.6

Variant	screen value
chain 1 N339S	0.2
